The results in this text go back to US20040260068A1 (published 2004).

A word on the IC50: it is the concentration at which inhibition is half-maximal.

Assay [1] concerns the target T1, human E-selectin on CHO-K1 transfectant cells (human, UniProt P16581 22-610).
T1 construct: whole, on cells; also called CHO-E Selectin; CHO-E selectin
T1 sequence (looked up): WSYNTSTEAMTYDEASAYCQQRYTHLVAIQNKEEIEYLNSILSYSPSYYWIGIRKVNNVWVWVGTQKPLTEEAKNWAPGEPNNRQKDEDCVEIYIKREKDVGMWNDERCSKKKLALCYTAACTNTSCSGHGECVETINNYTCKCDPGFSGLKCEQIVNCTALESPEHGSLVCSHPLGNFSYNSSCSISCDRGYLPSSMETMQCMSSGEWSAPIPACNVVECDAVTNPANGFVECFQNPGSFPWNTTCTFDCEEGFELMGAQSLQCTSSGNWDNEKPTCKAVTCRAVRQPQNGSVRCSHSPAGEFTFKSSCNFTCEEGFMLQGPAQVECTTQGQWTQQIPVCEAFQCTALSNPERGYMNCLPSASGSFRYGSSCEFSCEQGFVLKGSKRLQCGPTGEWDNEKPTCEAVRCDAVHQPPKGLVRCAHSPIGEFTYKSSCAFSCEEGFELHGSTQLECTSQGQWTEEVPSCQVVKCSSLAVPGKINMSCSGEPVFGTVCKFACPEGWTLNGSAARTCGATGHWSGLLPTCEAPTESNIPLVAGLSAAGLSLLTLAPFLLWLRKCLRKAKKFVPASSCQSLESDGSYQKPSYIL
The experiment in a line: flow cytometry on CHO-K1 transfectants. On the procedure: (§1) 2×10⁵ cells were incubated on ice for 30 minutes in FACS buffer (PBS containing 1% bovine serum albumin and 0.2% sodium azide) with 1 μg of test antibody or buffer alone. After incubation, cells were washed three times with FACS buffer and subsequently incubated for another 30 minutes with PE-conjugated donkey anti-human IgG F(ab′)2 fragment (Jackson ImmunoResearch). After washing three times with FACS buffer, relative cell fluorescence was analyzed by flow cytometry using a Cyan (DAKOCytomation).
A general note: Flow cytometry measures light scatter and fluorescence of single cells or particles in a stream.

Assay [2] has as its target T2, human P-selectin on CHO-K1 transfectant cells (human, UniProt P16109 42-830).
T2 construct: whole, on cells; also called CHO-P selectin
T2 sequence (looked up): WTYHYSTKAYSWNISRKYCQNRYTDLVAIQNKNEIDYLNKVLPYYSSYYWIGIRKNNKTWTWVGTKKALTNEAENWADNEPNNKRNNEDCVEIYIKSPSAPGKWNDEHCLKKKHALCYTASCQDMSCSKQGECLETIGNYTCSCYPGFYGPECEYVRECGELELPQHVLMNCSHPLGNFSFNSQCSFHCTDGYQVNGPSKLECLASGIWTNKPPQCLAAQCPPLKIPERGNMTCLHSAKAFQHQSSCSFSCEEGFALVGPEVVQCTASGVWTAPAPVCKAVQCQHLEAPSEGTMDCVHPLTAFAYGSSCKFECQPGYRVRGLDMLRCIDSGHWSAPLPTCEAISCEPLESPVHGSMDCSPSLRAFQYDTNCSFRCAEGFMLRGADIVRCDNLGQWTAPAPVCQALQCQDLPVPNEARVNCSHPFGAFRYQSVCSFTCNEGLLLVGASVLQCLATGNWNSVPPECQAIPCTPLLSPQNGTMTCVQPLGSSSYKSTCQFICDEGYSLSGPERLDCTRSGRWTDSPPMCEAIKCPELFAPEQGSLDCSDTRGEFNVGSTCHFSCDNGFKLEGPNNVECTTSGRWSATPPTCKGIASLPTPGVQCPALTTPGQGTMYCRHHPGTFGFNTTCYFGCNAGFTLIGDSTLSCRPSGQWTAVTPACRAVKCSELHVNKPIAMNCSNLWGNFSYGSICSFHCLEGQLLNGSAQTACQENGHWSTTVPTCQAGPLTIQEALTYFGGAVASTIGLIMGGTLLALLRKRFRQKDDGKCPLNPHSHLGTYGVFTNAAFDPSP
Nature of the assay: flow cytometry on CHO-K1 transfectants. On the procedure: as §1

In assay [3] the target is T3, recombinant soluble human L-selectin (human, UniProt P14151 39-332).
T3 construct: extracellular domain; The residue numbers 1-279 count on the mature protein, not on the precursor
T3 sequence (looked up): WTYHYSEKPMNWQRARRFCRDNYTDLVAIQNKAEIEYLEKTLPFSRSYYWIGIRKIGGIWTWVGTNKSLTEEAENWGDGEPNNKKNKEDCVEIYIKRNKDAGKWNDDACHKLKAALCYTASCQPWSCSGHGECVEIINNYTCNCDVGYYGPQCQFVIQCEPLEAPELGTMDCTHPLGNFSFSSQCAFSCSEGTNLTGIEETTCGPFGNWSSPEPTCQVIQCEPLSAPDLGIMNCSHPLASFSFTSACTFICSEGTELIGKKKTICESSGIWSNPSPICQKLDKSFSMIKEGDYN
The experiment in a line: competition ELISA on coated soluble human L-selectin; competitor of biotinylated ChD3. How it is done:
ELISA plates were coated with 0.25 μg/ml soluble human L-selectin in 0.2 M sodium carbonate buffer (pH 9.4) and blocked with SuperBlock blocking buffer (Pierce). […] As controls, humanized anti-human L-selectin monoclonal antibody HuDREG55 (Co et al., Immunotechol. 4:253-266 (1999)) and humanized anti-human HLA-DR monoclonal antibody Hu1D10 (Kostelny et al., Int. J. Cancer 93:556-565 (2001)) were used. ELISA plates were incubated at room temperature for 2 hr. After washing the wells with Washing Buffer (PBS containing 0.1% Tween 20), 100 μl of 1 μg/ml HRP-conjugated streptavidin (Pierce) in ELISA buffer was added to each well. ELISA plates were incubated at room temperature for 60 min and washed with Washing Buffer. For color development, 100 μl/well of ABTS substrate was added. Color development was stopped by adding 100 μl/well of 2% oxalic acid. Absorbance was read at 415 nm.
For orientation: In an ELISA, binding on a coated surface is turned into a signal by an enzyme label.

For assay [4], the target named is T2, human P-selectin on CHO-K1 transfectant …. Nature of the assay: flow cytometry on CHO-K1 transfectants; panel H read as CHO-P selectin. On the procedure:
as §1

B1: humanized anti-L-selectin antibody D3 (antibody, V domains shown)
VH: EVQLLESGGGLVQPGGSLRLSCAASGFSIGSYNMHWVRQAPGKGLEWVAGISGAGSRTAWYGAAVKGRATISRDNAKNTVYLQMNSLRAEDTAVYYCAKDYGGSGSPWYGWGAASWIDAWGQGTLVTVSS
VL: SSELTQDPAVSVALGQTVRITCSGGSYYGWYQQKPGQAPVTVIYDNDKRPSDIPSRFSGSKSGSTGSLTITGAQAEDEADYYCGSADSAYVGIFGGGTKLTVL
notes: Transiently expressed in 293-H cells; also called HuD3; humanized D3
As for B1, the binding result in assay [1] and in assay [2] was “no binding (tested: 1 µg of test antibody)” each time. Further, in assay [3], the IC50 is 2.9 µg/mL.

B2: chicken-human chimeric anti-L-selectin antibody D3 (antibody, V domains shown)
VH: AVTLDESGGGLQTPGGALSLVCRASGFSIGSYNMHWVRQAPGKGLEWVAGISGAGSRTAWYGAAVKGRATISRDNGQSTVRLQLNNLRAEDTGTYYCAKDYGGSGSPWYGWGAASWIDAWGHGTEVIVSS
VL: ALTQPASVSANPGETVKITCSGGSYYGWYQQKSPGSAPVTVIYDNDKRPSDIPSRFSGSKSGSTGTLTITGVQAEDEAVYFCGSADSAYVGIFGAGTTLTVL
notes: Transiently expressed in 293-H cells; also called ChD3; chimeric D3
With B2, the binding result in assay [1] and in assay [4] was “no binding (tested: 1 µg of test antibody)” in each case. In assay [3], the IC50 came out at 3.4 µg/mL.
